How the values were obtained:
soybean T1 plants = test: Tolerance of transgenic soybean T1 plants to mesotrione; type: in vivo; settings: mesotrione 210 and 420 g ai/ha, 7 DAT, compared to control vector and wild-type
Description: The Arabidopsisthaliana T1 plants into which the AsHPPDm-F372A-02 nucleotide sequence was introduced, Arabidopsis thaliana T1 plants into which the AsHPPD-02 nucleotide sequence was introduced and wild-type Arabidopsisthaliana plants (18 days after sowing) were sprayed with topramezone at four different concentrations, i.e., 25 g ai/ha (one-fold field concentration, 1×), 50 g ai/ha (two-fold field concentration, 2×), 100 g ai/ha (four-fold field concentration, 4×) and 0 g ai/ha (water, 0×) to determine the tolerance of Arabidopsisthaliana to the herbicide. The degree of damage caused by the herbicide was measured for each plant according to the proportion of bleached leaf area (the proportion of bleached leaf area=bleached leaf area/total leaf area×100%) 7 days after spraying (7 DAT): the case where there is basically no bleached phenotype is defined as grade 0, the case where the proportion of bleached leaf area is less than 50% is defined as grade 1,the case where the proportion of bleached leaf area is more than 50% is defined as grade 2, and the case where the proportion of bleached leaf area is 100% grade is defined as grade 3.
In order to further verify the tolerance effect of HPPD (F372A) on other HPPD inhibitors, the soybean T1 plants into which the AsHPPDm-F372A-02 nucleotide sequence was introduced, soybean T1 plants into which the ZmHPPDm-F372A-02 nucleotide sequence was introduced, soybean T1 plants into which the PfHPPDm-F372A-02 nucleotide sequence was introduced, soybean T1 plants into which the AsHPPDm-F372A-A110 nucleotide sequence was introduced, soybean T1 plants into which the control vector DBN11375NN was introduced in Example 8, and the wild-type soybean plants (V3-V4 at seedling stage) were sprayed as follows to detect the herbicide tolerance of each soybean plants, (1) 140 g ai/ha (2-fold field concentration, 2 ×) isoxaflutole; (2) 280 g ai/ha (4-fold field concentration, 4 ×) isoxaflutole; (3) 210 g ai/ha (2-fold field concentration, 2 ×) mesotrione; (4) 420 g ai/ha (4-fold field concentration, 4 ×) mesotrione. According to the method in point 6 of Example 1, after 7 days of spraying (7 DAT), the damage degree of each plant by the herbicide was statistically analyzed, and the scoring and resistance evaluation were carried out accordingly. […]

[1] = system: Arabidopsis thaliana T1 plants; test: Topramezone tolerance of transgenic Arabidopsis thaliana T1 plants (pesticide damage grade by bleached leaf area, score, resistance evaluation); type: in vivo; settings: for Classification and statistics of pesticide damage grade Grade 0 / Classification and statistics of pesticide damage grade Grade 1 / Classification and statistics of pesticide damage grade Grade 2 / Classification and statistics of pesticide damage grade Grade 3 / Classification and statistics of the grade of pesticide damage Grade 0 / Classification and statistics of the grade of pesticide damage Grade 1 / Classification and statistics of the grade of pesticide damage Grade 2 / Classification and statistics of the grade of pesticide damage Grade 3: number of plants (of 16) in this grade; for Classification and statistics of pesticide damage grade Grade 0 / Classification and statistics of pesticide damage grade Grade 1 / Classification and statistics of pesticide damage grade Grade 2 / Classification and statistics of pesticide damage grade Grade 3 / Scores / Resistance evaluation / Classification and statistics of the grade of pesticide damage Grade 0 / Classification and statistics of the grade of pesticide damage Grade 1 / Classification and statistics of the grade of pesticide damage Grade 2 / Classification and statistics of the grade of pesticide damage Grade 3: 7 DAT; for Scores: score for pesticide damage 0-100; for Grade 0 (number of plants) / Grade 1 (number of plants) / Grade 2 (number of plants) / Grade 3 (number of plants) / Resistance Grade / score: mutation combination, Table 8
Summary of the method: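 Eighteen days after sowing, wild-type and HPPD-transgenic T1 Arabidopsis receive a topramezone spray at 1×, 2× or 4× field rate (25–100 g ai/ha) or water. Seven days later each plant is graded by its proportion of bleached leaf area.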

[2] = HPPDs from different species, topramezone 25 g ai/ha (1x)
[3] = HPPDs from different species, topramezone 100 g ai/ha (4x)

B1: ZmHPPDm-F372A-02: Zea mays HPPD mutant F372A, SEQ ID NO: 20 (protein)
chain: MPPTPTAAAAGAAVAAASAAEQAAFRLVGHRNFVRFNPRSDRFHTLAFHHVELWCADAASAAGRFSFGLGAPLAARSDLSTGNSAHASLLLRSGSLSFLFTAPYAHGADAATAALPSFSAAAARRFAADHGLAVRAVALRVADAEEAFRTSVAAGARPAFGPVDLGRGFRLAEVELYGDVVLRYVSYPDGAAGEPFLPGFEGVASPGAADYGLSRFDHIVGNVPELAPAAAYFAGFTGFHEFAEFTTEDVGTAESGLNSMVLANNSENVLLPLNEPVHGTKRRSQIQTFLDHHGGPGVQHMALASDDVLRTLREMQARSAMGGFEFMAPPTSDYYDGVRRRAGDVLTEAQIKECQELGVLVDRDDQGVLLQIAPKPVGDRPTLFLEIIQRIGCMERDEKGQEYQKGGCGGFGKGNFSQLFKSIEDYEKSLEAMQAAAAATAQGS
modifications: ZmHPPDm-F372A Amino Acid Sequence
tolerance to mesotrione, in words (soybean T1 plants): different degrees of tolerance | Classification and statistics of pesticide damage grade Grade 0 [1, 2]: 16 | Classification and statistics of pesticide damage grade Grade 1 [1, 2]: 0 | Classification and statistics of pesticide damage grade Grade 2 [1, 2]: 0 | Classification and statistics of pesticide damage grade Grade 3 [1, 2]: 0 | Classification and statistics of pesticide damage grade Grade 0 [1, 3]: 4 | Classification and statistics of pesticide damage grade Grade 1 [1, 3]: 12 | Classification and statistics of pesticide damage grade Grade 2 [1, 3]: 0 | Classification and statistics of pesticide damage grade Grade 3 [1, 3]: 0 | Scores [1, 2]: 0 | Scores [1, 3]: 25 | Resistance evaluation [1, 2]: highly resistant (highly resistant plants (scores 0-15)) | Resistance evaluation [1, 3]: moderately resistant (moderately resistant plants (scores 16-33))

B2: PfHPPDm-F372A-02: Pseudomonas fluorescens HPPD mutant F372A, SEQ ID NO: 30 (protein)
chain: MADLYENPMGLMGFEFIEFASPTPGTLEPIFEIMGFTKVATHRSKNVHLYRQGEINLILNNEPNSIASYFAAEHGPSVCGMAFRVKDSQKAYNRALELGAQPIHIDTGPMELNLPAIKGIGGAPLYLIDRFGEGSSIYDIDFVYLEGVERNPVGAGLKVIDHLTHNVYRGRMVYWANFYEKLFNFREARYFDIKGEYTGLTSKAMSAPDGMIRIPLNEESSKGAGQIEEFLMQFNGEGIQHVAFLTDDLVKTWDALKKIGMRFMTAPPDTYYEMLEGRLPDHGEPVDQLQARGILLDGSSVEGDKRLLLQIASETLMGPVFFEFIQRKGDDGFGEGNFKALFESIERDQVRRGVLTAD
modifications: PfHPPDm-F372A Amino Acid Sequence
tolerance to mesotrione, in words (soybean T1 plants): different degrees of tolerance | Classification and statistics of pesticide damage grade Grade 0 [1, 2]: 16 | Classification and statistics of pesticide damage grade Grade 1 [1, 2]: 0 | Classification and statistics of pesticide damage grade Grade 2 [1, 2]: 0 | Classification and statistics of pesticide damage grade Grade 3 [1, 2]: 0 | Classification and statistics of pesticide damage grade Grade 0 [1, 3]: 12 | Classification and statistics of pesticide damage grade Grade 1 [1, 3]: 4 | Classification and statistics of pesticide damage grade Grade 2 [1, 3]: 0 | Classification and statistics of pesticide damage grade Grade 3 [1, 3]: 0 | Scores [1, 2]: 0 | Scores [1, 3]: 8 | Resistance evaluation [1, 2]: highly resistant (highly resistant plants (scores 0-15)) | Resistance evaluation [1, 3]: highly resistant (highly resistant plants (scores 0-15)) | Grade 0 (number of plants) ([1]; topramezone 25 g ai/ha): 20 | Grade 1 (number of plants) ([1]; topramezone 25 g ai/ha): 0 | Grade 2 (number of plants) ([1]; topramezone 25 g ai/ha): 0 | Grade 3 (number of plants) ([1]; topramezone 25 g ai/ha): 0 | Resistance Grade ([1]; topramezone 25 g ai/ha): Highly resistant | score ([1]; topramezone 25 g ai/ha): 0 | Grade 0 (number of plants) ([1]; topramezone 100 g ai/ha): 16 | Grade 1 (number of plants) ([1]; topramezone 100 g ai/ha): 4 | Grade 2 (number of plants) ([1]; topramezone 100 g ai/ha): 0 | Grade 3 (number of plants) ([1]; topramezone 100 g ai/ha): 0 | Resistance Grade ([1]; topramezone 100 g ai/ha): Highly resistant | score ([1]; topramezone 100 g ai/ha): 7

B3: AsHPPDm-F372A-02: Avena sativa HPPD mutant F372A, SEQ ID NO: 4; gene SEQ ID NO: 6 (protein)
chain: MPPTPATATGAAAAAVTPEHAARSFPRVVRVNPRSDRFPVLSFHHVELWCADAASAAGRFSFALGAPLAARSDLSTGNSAHASLLLRSGALAFLFTAPYAPPPQEAATAAATASIPSFSADAARTFAAAHGLAVRSVGVRVADAAEAFRVSVAGGARPAFAPADLGHGFGLAEVELYGDVVLRFVSYPDETDLPFLPGFERVSSPGAVDYGLTRFDHVVGNVPEMAPVIDYMKGFLGFHEFAEFTAEDVGTTESGLNSVVLANNSEAVLLPLNEPVHGTKRRSQIQTYLEYHGGPGVQHIALASNDVLRTLREMRARTPMGGFEFMAPPQAKYYEGVRRIAGDVLSEEQIKECQELGVLVDRDDQGVLLQIATKPVGDRPTFFLEMIQRIGCMEKDEVGQEYQKGGCGGFGKGNFSELFKSIEDYEKSLEVKQSVVAQKS
modifications: AsHPPDm-F372A Amido Acid Sequence
tolerance to mesotrione, in words (soybean T1 plants): different degrees of tolerance | resistance evaluation stated in the text ([1]; Arabidopsis thaliana T1 plants sprayed with topramezone, all tested concentrations): highly resistant (highly resistant plants (scores 0-15)) | Classification and statistics of the grade of pesticide damage Grade 0 ([1]; topramezone 25 g ai/ha (1x)): 16 | Classification and statistics of the grade of pesticide damage Grade 1 ([1]; topramezone 25 g ai/ha (1x)): 0 | Classification and statistics of the grade of pesticide damage Grade 2 ([1]; topramezone 25 g ai/ha (1x)): 0 | Classification and statistics of the grade of pesticide damage Grade 3 ([1]; topramezone 25 g ai/ha (1x)): 0 | Classification and statistics of the grade of pesticide damage Grade 0 ([1]; topramezone 50 g ai/ha (2x)): 16 | Classification and statistics of the grade of pesticide damage Grade 1 ([1]; topramezone 50 g ai/ha (2x)): 0 | Classification and statistics of the grade of pesticide damage Grade 2 ([1]; topramezone 50 g ai/ha (2x)): 0 | Classification and statistics of the grade of pesticide damage Grade 3 ([1]; topramezone 50 g ai/ha (2x)): 0 | Classification and statistics of the grade of pesticide damage Grade 0 ([1]; topramezone 100 g ai/ha (4x)): 16 | Classification and statistics of the grade of pesticide damage Grade 1 ([1]; topramezone 100 g ai/ha (4x)): 0 | Classification and statistics of the grade of pesticide damage Grade 2 ([1]; topramezone 100 g ai/ha (4x)): 0 | Classification and statistics of the grade of pesticide damage Grade 3 ([1]; topramezone 100 g ai/ha (4x)): 0 | Scores ([1]; topramezone 25 g ai/ha (1x)): 0 | Scores ([1]; topramezone 50 g ai/ha (2x)): 0 | Scores ([1]; topramezone 100 g ai/ha (4x)): 0 | Resistance evaluation ([1]; topramezone 25 g ai/ha (1x)): highly resistant (highly resistant plants (scores 0-15)) | Grade 0 (number of plants) ([1]; topramezone 25 g ai/ha): 20 | Grade 1 (number of plants) ([1]; topramezone 25 g ai/ha): 0 | Grade 2 (number of plants) ([1]; topramezone 25 g ai/ha): 0 | Grade 3 (number of plants) ([1]; topramezone 25 g ai/ha): 0 | Resistance Grade ([1]; topramezone 25 g ai/ha): Highly resistant | score ([1]; topramezone 25 g ai/ha): 0 | Resistance evaluation ([1]; topramezone 50 g ai/ha (2x)): highly resistant (highly resistant plants (scores 0-15)) | Resistance evaluation ([1]; topramezone 100 g ai/ha (4x)): highly resistant (highly resistant plants (scores 0-15)) | Grade 0 (number of plants) ([1]; topramezone 100 g ai/ha): 20 | Grade 1 (number of plants) ([1]; topramezone 100 g ai/ha): 0 | Grade 2 (number of plants) ([1]; topramezone 100 g ai/ha): 0 | Grade 3 (number of plants) ([1]; topramezone 100 g ai/ha): 0 | Resistance Grade ([1]; topramezone 100 g ai/ha): Highly resistant | score ([1]; topramezone 100 g ai/ha): 0

Source: US20230212587A1, “Mutant Hydroxyphenylpyruvate Dioxygenase Polypeptide, Encoding Gene Thereof and Use Therefor” (Beijing Dabeinong Biotechnology Co., Ltd., priority 2019, published 2023)
